# B1: … A6Y (peptide)
# peptide: EKKYFYATQFEPLAA
# B2: … A6P (peptide)
# peptide: EKKYFPATQFEPLAA
# B3: … Y4Q (peptide)
# peptide: EKKQFAATQFEPLAA
# B4: … A6F (peptide)
# peptide: EKKYFFATQFEPLAA
# B5: … Y4D (peptide)
# peptide: EKKDFAATQFEPLAA
# B6: … Q9C (peptide)
# peptide: EKKYFAATCFEPLAA
# B7: … Q9H (peptide)
# peptide: EKKYFAATHFEPLAA
# B8: … Q9P (peptide)
# peptide: EKKYFAATPFEPLAA
# B9: … Y4A (peptide)
# peptide: EKKAFAATQFEPLAA
# B10: … T8N (peptide)
# peptide: EKKYFAANQFEPLAA
# B11: … A6T (peptide)
# peptide: EKKYFTATQFEPLAA
# B12: … Q9R (peptide)
# peptide: EKKYFAATRFEPLAA
# B13: … T8D (peptide)
# peptide: EKKYFAADQFEPLAA
# B14: … Q9V (peptide)
# peptide: EKKYFAATVFEPLAA
# B15: … A6D (peptide)
# peptide: EKKYFDATQFEPLAA
# B16: … Q9A (peptide)
# peptide: EKKYFAATAFEPLAA
# B17: … E11V (peptide)
# peptide: EKKYFAATQFVPLAA
# B18: … Q9K (peptide)
# peptide: EKKYFAATKFEPLAA
# B19: … E11W (peptide)
# peptide: EKKYFAATQFWPLAA
# B20: … Q9F (peptide)
# peptide: EKKYFAATFFEPLAA
# B21: … T8W (peptide)
# peptide: EKKYFAAWQFEPLAA
# B22: … E11Q (peptide)
# peptide: EKKYFAATQFQPLAA
# B23: … E11N (peptide)
# peptide: EKKYFAATQFNPLAA
# B24: … E11I (peptide)
# peptide: EKKYFAATQFIPLAA
# B25: … T8Y (peptide)
# peptide: EKKYFAAYQFEPLAA
# B26: … E11R (peptide)
# peptide: EKKYFAATQFRPLAA
# B27: … A6K (peptide)
# peptide: EKKYFKATQFEPLAA
# B28: … A6E (peptide)
# peptide: EKKYFEATQFEPLAA
# B29: … A6I (peptide)
# peptide: EKKYFIATQFEPLAA
# B30: … Q9S (peptide)
# peptide: EKKYFAATSFEPLAA
# B31: … E11L (peptide)
# peptide: EKKYFAATQFLPLAA
# B32: … A6C (peptide)
# peptide: EKKYFCATQFEPLAA
# Target: HLA-DPB1*0101 (human (endogenous in VAVY))
# Assay: radioligand binding
row,Binder,other
1,B1,6
2,B2,0.18
3,B3,1
4,B4,2.1
5,B5,2
6,B6,1.8
7,B7,1
8,B8,1
9,B9,0.066
10,B10,3.4
11,B11,2.1
12,B12,1.8
13,B13,0.2

# Target: HLA-DPB1*0501 (human (endogenous in HO301))
# Assay: radioligand binding
row,Binder,other
1,B14,3.4
2,B15,0.13
3,B16,1
4,B17,2
5,B18,0.95
6,B1,2.1
7,B19,0.13
8,B20,13
9,B21,0.13
10,B22,1
11,B23,0.36
12,B24,2.1
13,B25,0.2
14,B26,1
15,B27,1.8

# Target: HLA-DPB1*0201 (human (endogenous in JY))
# Assay: radioligand binding
row,Binder,other
1,B15,0.36
2,B28,0.41
3,B29,0.89
4,B3,1.8
5,B24,1.8
6,B30,2
7,B31,2
8,B32,0.38
9,B9,0.2
10,B11,1

# Reference: paper PMC2935290
